In the Human Domainome abundance scans (Beltran et al. 2025):
± gives the uncertainty stated by the source.

B1: POU domain, class 3, transcription factor 3, residues 320 to 388; numbered along this chain, P20264 (parent)
chain: DDLEQFAKQFKQRRIKLGFTQADVGLALGTLYGNVFSQTTICRFEALQLSFKNMCKLKPLLNKWLEEAD

Variants of: B1
Assay: abundance fitness (aPCA) (normalised: wild type 0, dead -1); higher = more abundant; growth selection in yeast, the domain comes from the species named
Conditions: Homo sapiens

Variant	abundance fitness
DDLEQFAKQFKQRRIKLGFTQADVGLALGTLYGNVFSQTTICRFEALQLSFKNMCKLKPLLNKWLIEAD [E66I]	0.075 ± 0.21
DDLEQFAKQFKQRRIKLGFTQADVGLALGTLYGNVFSQTTICRFEALQLSFKNMCKLKPLLNKWLYEAD [E66Y]	-0.635 ± 0.31
DDLEQFAKQFKQRRIKLGFTQADVGLALGTLYGNVFSQTTICRFEALQLSFKNMCKLKPLLNKWLVEAD [E66V]	-0.225 ± 0.12
DDLEQFAKQFKQRRIKLGFTQADVGLALGTLYGNVFSQTTICRFEALQLSFKNMCKLKPLLNKWLTEAD [E66T]	-0.132 ± 0.21
DDLEQFAKQFKQRRIKLGFTQADVGLALGTLYGNVFSQTTICRFEALQLSFKNMCKLKPLLNKWLMEAD [E66M]	0.002 ± 0.098
DDLEQFAKQFKQRRIKLGFTQADVGLALGTLYGNVFSQTTICRFEALQLSFKNMCKLKPLLNKWLCEAD [E66C]	-0.046 ± 0.37
DDLEQFAKQFKQRRIKLGFTQADVGLALGTLYGNVFSQTTICRFEALQLSFKNMCKLKPLLNKWLHEAD [E66H]	0.082 ± 0.37
DDLEQFAKQFKQRRIKLGFTQADVGLALGTLYGNVFSQTTICRFEALQLSFKNMCKLKPLLNKWLDEAD [E66D]	0.402 ± 0.26
DDLEQFAKQFKQRRIKLGFTQADVGLALGTLYGNVFSQTTICRFEALQLSFKNMCKLKPLLNKWLFEAD [E66F]	-0.127 ± 0.19
DDLEQFAKQFKQRRIKLGFTQADVGLALGTLYGNVFSQTTICRFEALQLSFKNMCKLKPLLNKWLLEAD [E66L]	-0.428 ± 0.12
DDLEQFAKQFKQRRIKLGFTQADVGLALGTLYGNVFSQTTICRFEALQLSFKNMCKLKPLLNKWLSEAD [E66S]	-0.502 ± 0.35
DDLEQFAKQFKQRRIKLGFTQADVGLALGTLYGNVFSQTTICRFEALQLSFKNMCKLKPLLNKWLREAD [E66R]	-0.146 ± 0.17
DDLEQFAKQFKQRRIKLGFTQADVGLALGTLYGNVFSQTTICRFEALQLSFKNMCKLKPLLNKWLNEAD [E66N]	0.122 ± 0.14
DDLEQFAKQFKQRRIKLGFTQADVGLALGTLYGNVFSQTTICRFEALQLSFKNMCKLKPLLNKWLKEAD [E66K]	-0.123 ± 0.084
DDLEQFAKQFKQRRIKLGFTQADVGLALGTLYGNVFSQTTICRFEALQLSFKNMCKLKPLLNKWLGEAD [E66G]	-0.889 ± 0.33
DDLEQFAKQFKQRRIKLGFTQADVGLALGTLYGNVFSQTTICRFEALQLSFKNMCKLKPLLNHWLEEAD [K63H]	-0.189 ± 0.05
DDLEQFAKQFKQRRIKLGFTQADVGLALGTLYGNVFSQTTICRFEALQLSFKNMCKLKPLLNQWLEEAD [K63Q]	-0.066 ± 0.073
DDLEQFAKQFKQRRIKLGFTQADVGLALGTLYGNVFSQTTICRFEALQLSFKNMCKLKPLLNDWLEEAD [K63D]	-0.349 ± 0.21
DDLEQFAKQFKQRRIKLGFTQADVGLALGTLYGNVFSQTTICRFEALQLSFKNMCKLKPLLNFWLEEAD [K63F]	-0.149 ± 0.16
DDLEQFAKQFKQRRIKLGFTQADVGLALGTLYGNVFSQTTICRFEALQLSFKNMCKLKPLLNEWLEEAD [K63E]	-0.519 ± 0.13
DDLEQFAKQFKQRRIKLGFTQADVGLALGTLYGNVFSQTTICRFEALQLSFKNMCKLKPLLNMWLEEAD [K63M]	-0.435 ± 0.1
DDLEQFAKQFKQRRIKLGFTQADVGLALGTLYGNVFSQTTICRFEALQLSFKNMCKLKPLLNSWLEEAD [K63S]	-0.317 ± 0.066
DDLEQFAKQFKQRRIKLGFTQADVGLALGTLYGNVFSQTTICRFEALQLSFKNMCKLKPLLNYWLEEAD [K63Y]	-0.53 ± 0.12
DDLEQFAKQFKQRRIKLGFTQADVGLALGTLYGNVFSQTTICRFEALQLSFKNMCKLKPLLNVWLEEAD [K63V]	-0.743 ± 0.093
DDLEQFAKQFKQRRIKLGFTQADVGLALGTLYGNVFSQTTICRFEALQLSFKNMCKLKPLLNAWLEEAD [K63A]	-0.129 ± 0.06
DDLEQFAKQFKQRRIKLGFTQADVGLALGTLYGNVFSQTTICRFEALQLSFKNMCKLKPLLNWWLEEAD [K63W]	-0.658 ± 0.093

Variant	abundance fitness
DDLEQFAKQFKQRRIKLGFTQADVGLALGTLYGNVFSQTTICRFEALQLSFKNMCKLKPLLNGWLEEAD [K63G]	-0.074 ± 0.039
DDLEQFAKQFKQRRIKLGFTQADVGLALGTLYGNVFSQTTICRFEALQLSFKNMCKLKPLLNNWLEEAD [K63N]	-0.261 ± 0.13
DDLEQFAKQFKQRRIKLGFTQADVGLALGTLYGNVFSQTTICRFEALQLSFKNMCKLKPLLNPWLEEAD [K63P]	-0.77 ± 0.13
DDLEQFAKQFKQRRIKLGFTQADVGLALGTLYGNVFSQTTICRFEALQLSFKNMCKLKPLLNIWLEEAD [K63I]	-0.697 ± 0.14
DDLEQFAKQFKQRRIKLGFTQADVGLALGTLYGNVFSQTTICRFEALQLSFKNMCKLKPLLNLWLEEAD [K63L]	-0.493 ± 0.059
DDLEQFAKQFKQRRIKLGFTQADVGLALGTLYGNVFSQTTICRFEALQLSFKNMCKLKPLLNCWLEEAD [K63C]	-0.147 ± 0.11
DDLEQFAKQFKQRRIKLGFTQADVGLALGTLYGNVFSQTTICRFEALQLSFKNMCKLKPLLNKRLEEAD [W64R]	-0.582 ± 0.16
DDLEQFAKQFKQRRIKLGFTQADVGLALGTLYGNVFSQTTICRFEALQLSFKNMCKLKPLLNKILEEAD [W64I]	-0.715 ± 0.29
DDLEQFAKQFKQRRIKLGFTQADVGLALGTLYGNVFSQTTICRFEALQLSFKNMCKLKPLLNKQLEEAD [W64Q]	-0.8 ± 0.34
DDLEQFAKQFKQRRIKLGFTQADVGLALGTLYGNVFSQTTICRFEALQLSFKNMCKLKPLLNKGLEEAD [W64G]	-0.77 ± 0.15
DDLEQFAKQFKQRRIKLGFTQADVGLALGTLYGNVFSQTTICRFEALQLSFKNMCKLKPLLNKVLEEAD [W64V]	-0.305 ± 0.12
DDLEQFAKQFKQRRIKLGFTQADVGLALGTLYGNVFSQTTICRFEALQLSFKNMCKLKPLLNKMLEEAD [W64M]	-0.83 ± 0.18
DDLEQFAKQFKQRRIKLGFTQADVGLALGTLYGNVFSQTTICRFEALQLSFKNMCKLKPLLNKALEEAD [W64A]	-0.737 ± 0.16
DDLEQFAKQFKQRRIKLGFTQADVGLALGTLYGNVFSQTTICRFEALQLSFKNMCKLKPLLNKPLEEAD [W64P]	-0.746 ± 0.47
DDLEQFAKQFKQRRIKLGFTQADVGLALGTLYGNVFSQTTICRFEALQLSFKNMCKLKPLLNKTLEEAD [W64T]	-1.15 ± 0.42
DDLEQFAKQFKQRRIKLGFTQADVGLALGTLYGNVFSQTTICRFEALQLSFKNMCKLKPLLNKLLEEAD [W64L]	-0.913 ± 0.16
DDLEQFAKQFKQRRIKLGFTQADVGLALGTLYGNVFSQTTICRFEALQLSFKNMCKLKPLLNKSLEEAD [W64S]	-0.757 ± 0.3
DDLEQFAKQFKQRRIKLGFTQADVGLALGTLYGNVFSQTTICRFEALQLSFKNMCKLKPLLNKELEEAD [W64E]	-0.792 ± 0.23
DDLEQFAKQFKQRRIKLGFTQADVGLALGTLYGNVFSQTTICRFEALQLSFKNMCKLKPLLNKHLEEAD [W64H]	-0.778 ± 0.45
DDLEQFAKQFKQRRIKLGFTQADVGLALGTLYGNVFSQTTICRFEALQLSFKNMCKLKPLLNKWLEGAD [E67G]	-0.084 ± 0.099
DDLEQFAKQFKQRRIKLGFTQADVGLALGTLYGNVFSQTTICRFEALQLSFKNMCKLKPLLNKWLEAAD [E67A]	-0.032 ± 0.097
DDLEQFAKQFKQRRIKLGFTQADVGLALGTLYGNVFSQTTICRFEALQLSFKNMCKLKPLLNKWLELAD [E67L]	0.333 ± 0.2
DDLEQFAKQFKQRRIKLGFTQADVGLALGTLYGNVFSQTTICRFEALQLSFKNMCKLKPLLNKWLEQAD [E67Q]	-0.227 ± 0.18
DDLEQFAKQFKQRRIKLGFTQADVGLALGTLYGNVFSQTTICRFEALQLSFKNMCKLKPLLNKWLESAD [E67S]	0.196 ± 0.23
DDLEQFAKQFKQRRIKLGFTQADVGLALGTLYGNVFSQTTICRFEALQLSFKNMCKLKPLLNKWLETAD [E67T]	-0.134 ± 0.26
DDLEQFAKQFKQRRIKLGFTQADVGLALGTLYGNVFSQTTICRFEALQLSFKNMCKLKPLLNKWLEKAD [E67K]	-0.029 ± 0.23

Variant	abundance fitness
DDLEQFAKQFKQRRIKLGFTQADVGLALGTLYGNVFSQTTICRFEALQLSFKNMCKLKPLLNKWLEVAD [E67V]	-0.321 ± 0.14
DDLEQFAKQFKQRRIKLGFTQADVGLALGTLYGNVFSQTTICRFEALQLSFKNMCKLKPLLNKWLERAD [E67R]	-0.015 ± 0.12
DDLEQFAKQFKQRRIKLGFTQADVGLALGTLYGNVFSQTTICRFEALQLSFKNMCKLKPLLNKWGEEAD [L65G]	-0.935 ± 0.29
DDLEQFAKQFKQRRIKLGFTQADVGLALGTLYGNVFSQTTICRFEALQLSFKNMCKLKPLLNKWWEEAD [L65W]	-0.297 ± 0.098
DDLEQFAKQFKQRRIKLGFTQADVGLALGTLYGNVFSQTTICRFEALQLSFKNMCKLKPLLNKWMEEAD [L65M]	-0.185 ± 0.12
DDLEQFAKQFKQRRIKLGFTQADVGLALGTLYGNVFSQTTICRFEALQLSFKNMCKLKPLLNKWQEEAD [L65Q]	-0.73 ± 0.15
DDLEQFAKQFKQRRIKLGFTQADVGLALGTLYGNVFSQTTICRFEALQLSFKNMCKLKPLLNKWCEEAD [L65C]	-0.846 ± 0.37
DDLEQFAKQFKQRRIKLGFTQADVGLALGTLYGNVFSQTTICRFEALQLSFKNMCKLKPLLNKWTEEAD [L65T]	-0.732 ± 0.37
DDLEQFAKQFKQRRIKLGFTQADVGLALGTLYGNVFSQTTICRFEALQLSFKNMCKLKPLLNKWSEEAD [L65S]	-0.58 ± 0.1
DDLEQFAKQFKQRRIKLGFTQADVGLALGTLYGNVFSQTTICRFEALQLSFKNMCKLKPLLNKWKEEAD [L65K]	-0.211 ± 0.11
DDLEQFAKQFKQRRIKLGFTQADVGLALGTLYGNVFSQTTICRFEALQLSFKNMCKLKPLLNKWIEEAD [L65I]	-0.513 ± 0.36
DDLEQFAKQFKQRRIKLGFTQADVGLALGTLYGNVFSQTTICRFEALQLSFKNMCKLKPLLNKWREEAD [L65R]	-0.674 ± 0.13
DDLEQFAKQFKQRRIKLGFTQADVGLALGTLYGNVFSQTTICRFEALQLSFKNMCKLKPLLNKWFEEAD [L65F]	-0.633 ± 0.47
DDLEQFAKQFKQRRIKLGFTQADVGLALGTLYGNVFSQTTICRFEALQLSFKNMCKLKPLLQKWLEEAD [N62Q]	-0.028 ± 0.11
DDLEQFAKQFKQRRIKLGFTQADVGLALGTLYGNVFSQTTICRFEALQLSFKNMCKLKPLLLKWLEEAD [N62L]	-0.126 ± 0.083
DDLEQFAKQFKQRRIKLGFTQADVGLALGTLYGNVFSQTTICRFEALQLSFKNMCKLKPLLWKWLEEAD [N62W]	-0.739 ± 0.27
DDLEQFAKQFKQRRIKLGFTQADVGLALGTLYGNVFSQTTICRFEALQLSFKNMCKLKPLLRKWLEEAD [N62R]	-0.063 ± 0.076
DDLEQFAKQFKQRRIKLGFTQADVGLALGTLYGNVFSQTTICRFEALQLSFKNMCKLKPLLSKWLEEAD [N62S]	0.03 ± 0.046
DDLEQFAKQFKQRRIKLGFTQADVGLALGTLYGNVFSQTTICRFEALQLSFKNMCKLKPLLKKWLEEAD [N62K]	-0.12 ± 0.26
DDLEQFAKQFKQRRIKLGFTQADVGLALGTLYGNVFSQTTICRFEALQLSFKNMCKLKPLLHKWLEEAD [N62H]	0.11 ± 0.23
DDLEQFAKQFKQRRIKLGFTQADVGLALGTLYGNVFSQTTICRFEALQLSFKNMCKLKPLLVKWLEEAD [N62V]	0.148 ± 0.076
DDLEQFAKQFKQRRIKLGFTQADVGLALGTLYGNVFSQTTICRFEALQLSFKNMCKLKPLLNKWLEECD [A68C]	-0.485 ± 0.36
DDLEQFAKQFKQRRIKLGFTQADVGLALGTLYGNVFSQTTICRFEALQLSFKNMCKLKPLLNKWLEELD [A68L]	-0.705 ± 0.27
DDLEQFAKQFKQRRIKLGFTQADVGLALGTLYGNVFSQTTICRFEALQLSFKNMCKLKPLLNKWLEEED [A68E]	-0.6 ± 0.23
DDLEQFAKQFKQRRIKLGFTQADVGLALGTLYGNVFSQTTICRFEALQLSFKNMCKLKPLLNKWLEEHD [A68H]	-0.392 ± 0.45
DDLEQFAKQFKQRRIKLGFTQADVGLALGTLYGNVFSQTTICRFEALQLSFKNMCKLKPLLNKWLEEGD [A68G]	-0.62 ± 0.25
